B1: CASP6 (parent)
chain: TCADRDNLTRRFSDLGFEVKCFND

For 94 variants, protein stability index results are on record in the supplement of paper PMC10567573.
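Note: lentivirally expressed fusions sorted by FACS into six bins by GFP to DsRed ratio, PSI derived from sequencing read proportions per bin multiplied by bin number.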

The series covers variants of B1. As to the kind of experiment: protein stability index of a GFP-peptide fusion (GPS, HEK-293T) (PSI 1-6); higher = more stable. The conditions noted are these: c terminus: a fixed tail appended.
Take TCADRDNLTRRFSGLGFEVKCFND: the protein stability index was 3.46. In the case of TCADRDNLTRRFSTLGFEVKCFND, the protein stability index came out at 2.27. The same measure for TCADRDNLTRRFSELGFEVKCFND: 3.34. Turning to TCADRDNLTRRFSLLGFEVKCFND, the protein stability index came out at 2.5. As for TCADRDNLTRRFSHLGFEVKCFND, the protein stability index was found to be 2.4. The value for TCADRDNLTRRFSALGFEVKCFND was 3.23. TCADRDNLTRRFSILGFEVKCFND: the protein stability index was 2.79. The value for TCADRDNLTRRFSPLGFEVKCFND was 2.47; that for TCADRDNLTRRFSCLGFEVKCFND was 2.91. The value for TCADRDNLTRRFSWLGFEVKCFND was 1.97; that for TCADRDNLTRRFSYLGFEVKCFND was 2.46; that for TCADRDNLTRRFSKLGFEVKCFND was 3.36.

Take TCADRDNLTRRFSQLGFEVKCFND: the protein stability index came to 2.93. The same measure for TCADRDNLTRRFSVLGFEVKCFND: 2.43; for TCADRDNLTRRFSFLGFEVKCFND: 2.07. The value for TCADRDNLTRRFSRLGFEVKCFND was 2.45. The same measure for TCADRDNLTRRFSNLGFEVKCFND: 3.8. Regarding TCADRDNLTRRFSMLGFEVKCFND, the protein stability index came out at 1.97.

In the case of TCADRDNLTRRFSSLGFEVKCFND, the protein stability index is 2.46. TCADRDNLTGRFSDLGFEVKCFND: the protein stability index amounted to 3.48. The same measure for TCADRDNLTCRFSDLGFEVKCFND: 2.59; for TCADRDNLTFRFSDLGFEVKCFND: 2.98. As for TCADRDNLTHRFSDLGFEVKCFND, the protein stability index stood at 3.16.

Turning to TCADRDNLTQRFSDLGFEVKCFND, the protein stability index is 3.33. The value for TCADRDNLTKRFSDLGFEVKCFND was 3.75; that for TCADRDNLTYRFSDLGFEVKCFND was 2.65; that for TCADRDNLTERFSDLGFEVKCFND was 3.83. The value for TCADRDNLTDRFSDLGFEVKCFND was 3.96. The value for TCADRDNLTMRFSDLGFEVKCFND was 2.83; that for TCADRDNLTLRFSDLGFEVKCFND was 3.07; that for TCADRDNLTIRFSDLGFEVKCFND was 2.48.

TCADRDNLTVRFSDLGFEVKCFND: the protein stability index was 3.2. The same measure for TCADRDNLTSRFSDLGFEVKCFND: 3.29. The value for TCADRDNLTNRFSDLGFEVKCFND was 3.56; that for TCADRDNLTARFSDLGFEVKCFND was 3.59; that for TCADRDNLTPRFSDLGFEVKCFND was 3.39. In the case of TCADRDNLTWRFSDLGFEVKCFND, the protein stability index was found to be 2.17. As to TCADRDNLTTRFSDLGFEVKCFND, the protein stability index amounted to 3.61. On to TCADRDNLTRFFSDLGFEVKCFND, for which the protein stability index was determined as 2.33.

Regarding TCADRDNLTRLFSDLGFEVKCFND, the protein stability index was found to be 3.12. In the case of TCADRDNLTRAFSDLGFEVKCFND, the protein stability index came to 3.5. On to TCADRDNLTRPFSDLGFEVKCFND, for which the protein stability index stood at 3.68.

In the case of TCADRDNLTRKFSDLGFEVKCFND, the protein stability index came to 3.65.

Regarding TCADRDNLTRQFSDLGFEVKCFND, the protein stability index was determined as 3.5. Take TCADRDNLTRDFSDLGFEVKCFND: the protein stability index came out at 4.12. The value for TCADRDNLTRSFSDLGFEVKCFND was 3.57; that for TCADRDNLTRGFSDLGFEVKCFND was 3.36. The same measure for TCADRDNLTRCFSDLGFEVKCFND: 2.66; for TCADRDNLTREFSDLGFEVKCFND: 4.2. Regarding TCADRDNLTRWFSDLGFEVKCFND, the protein stability index is 1.62. For the variant TCADRDNLTRIFSDLGFEVKCFND, the protein stability index is 2.47.

With TCADRDNLTRYFSDLGFEVKCFND, the protein stability index turned out to be 2.35. The same measure for TCADRDNLTRMFSDLGFEVKCFND: 3.79; for TCADRDNLTRNFSDLGFEVKCFND: 3.76; for TCADRDNLTRHFSDLGFEVKCFND: 3.5.

TCADRDNLTRVFSDLGFEVKCFND: the protein stability index was determined as 2.76.

Turning to TCADRDNLTRTFSDLGFEVKCFND, the protein stability index was 3.2. As to TCADRDNLTRRFSDLAFEVKCFND, the protein stability index was 2.99. The same measure for TCADRDNLTRRFSDLVFEVKCFND: 1.92; for TCADRDNLTRRFSDLLFEVKCFND: 1.89; for TCADRDNLTRRFSDLWFEVKCFND: 1.93.

As to TCADRDNLTRRFSDLQFEVKCFND, the protein stability index was found to be 3.31. The same measure for TCADRDNLTRRFSDLKFEVKCFND: 2.68; for TCADRDNLTRRFSDLPFEVKCFND: 3.54. Turning to TCADRDNLTRRFSDLHFEVKCFND, the protein stability index came out at 2.84. The same measure for TCADRDNLTRRFSDLYFEVKCFND: 2.27; for TCADRDNLTRRFSDLFFEVKCFND: 2.03. The same measure for TCADRDNLTRRFSDLSFEVKCFND: 3.26; for TCADRDNLTRRFSDLMFEVKCFND: 2.14; for TCADRDNLTRRFSDLEFEVKCFND: 3.83. As to TCADRDNLTRRFSDLCFEVKCFND, the protein stability index amounted to 3.18.

Consider TCADRDNLTRRFSDLDFEVKCFND, for which the protein stability index turned out to be 3.33. As for TCADRDNLTRRFSDLIFEVKCFND, the protein stability index was determined as 1.92. TCADRDNLTRRFSDLRFEVKCFND: the protein stability index was found to be 3.13. The value for TCADRDNLTRRFSDLTFEVKCFND was 3.04. The same measure for TCADRDNLTRRFSDLNFEVKCFND: 3.61; for TCADRDNTTRRFSDLGFEVKCFND: 3.49. The value for TCADRDNPTRRFSDLGFEVKCFND was 3.52. As for TCADRDNNTRRFSDLGFEVKCFND, the protein stability index turned out to be 2.38. The value for TCADRDNETRRFSDLGFEVKCFND was 4.42; that for TCADRDNWTRRFSDLGFEVKCFND was 2.79; that for TCADRDNFTRRFSDLGFEVKCFND was 2.45. The same measure for TCADRDNRTRRFSDLGFEVKCFND: 4.07; for TCADRDNKTRRFSDLGFEVKCFND: 3.6.

Consider TCADRDNHTRRFSDLGFEVKCFND, for which the protein stability index worked out at 3.28. The value for TCADRDNITRRFSDLGFEVKCFND was 3.31; that for TCADRDNSTRRFSDLGFEVKCFND was 3.82; that for TCADRDNVTRRFSDLGFEVKCFND was 3.37. The value for TCADRDNCTRRFSDLGFEVKCFND was 2.99; that for TCADRDNQTRRFSDLGFEVKCFND was 4.08; that for TCADRDNYTRRFSDLGFEVKCFND was 2.91. The value for TCADRDNDTRRFSDLGFEVKCFND was 4.06; that for TCADRDNMTRRFSDLGFEVKCFND was 3.03. Consider TCADRDNATRRFSDLGFEVKCFND, for which the protein stability index is 3.38.
